Laboratory results as given in US20250002610A1 (Genmab, published 2025).

How the values were obtained:
[1] = target: T1, FcγRIIb (CD32B/Fcgr2b Protein, Human, Recombinant (His & AVI Tag), Biotinylated) (human, UniProt P31994 43-217, limits assumed, biotinylated); experiment: SPR (Biacore 8K), His-tagged FcγRIIb captured on an anti-His chip, antibody as analyte, endpoint response against concentration
T1 construct: Bought reagent; not shown: His & AVI tag
T1 sequence (looked up): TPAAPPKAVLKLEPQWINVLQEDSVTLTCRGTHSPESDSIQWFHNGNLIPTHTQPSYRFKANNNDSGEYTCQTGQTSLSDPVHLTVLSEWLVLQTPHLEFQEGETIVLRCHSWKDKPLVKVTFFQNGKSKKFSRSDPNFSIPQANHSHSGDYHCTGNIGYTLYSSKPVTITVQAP
Description: (§1) Binding of BisG1-FAPα-FERL/DR4-FERR to immobilized human His-tagged FcγRs and FcRn was analyzed by SPR using a Biacore 8K SPR system (Cytiva). To this end, anti-His antibodies were covalently immobilized on the surface of Biacore Series S Sensor Chip CM5 (Cytiva, Cat. #29104988) using the Amine Coupling Kit (Cytiva, Cat. #BR100050) and a His Capture Kit (Cytiva, Cat. #29234602) according to the manufacturer's instructions. To assess antibody binding to immobilized human FcγRs, aliquots of the recombinant His-tagged FcγR proteins (Table 24) were diluted in HBS EP+Buffer pH 7.4 (Cytiva, Cat. #BR100669) and used to capture the FcγR proteins on the surface of the anti-His antibody-coated sensors using a flow rate of 10 μL/min and a contact time of 60 s. Captured levels ranged from 434 to 592 RU. After three start-up cycles of HBS-EP+Buffer, concentration ranges of BisG1-FAPα-FERL/DR4-FERR or IgG1-b12 antibodies (Table 25) were injected to generate binding curves on FcγR-captured sensors (active surface). For each antibody sample, a parallel flow cell without captured FcγRs was included (reference surface), which was used for RU background correction.
(§2) All sensorgrams were subtracted by the signal of the third start-up cycle with buffer only (mock analyte). […]

[2] = target: T2, FcγRIIa-R131 (CD32A Protein, Human, Recombinant (167 Arg, His & AVI Tag), Biotinylated) (human, UniProt P12318 34-218, limits assumed, biotinylated); experiment: SPR (Biacore 8K), His-tagged FcγRIIa-R131 captured on an anti-His chip, antibody as analyte, endpoint response against concentration
T2 construct: Bought reagent; not shown: His & AVI tag
T2 sequence (looked up): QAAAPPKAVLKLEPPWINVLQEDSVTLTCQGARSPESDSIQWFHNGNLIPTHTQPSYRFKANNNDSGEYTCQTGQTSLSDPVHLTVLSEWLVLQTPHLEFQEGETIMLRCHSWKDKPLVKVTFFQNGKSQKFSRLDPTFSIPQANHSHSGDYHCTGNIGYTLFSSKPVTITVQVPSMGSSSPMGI
Description: as §1, §2

[3] = target: T3, FcγRIIIa-V158 (CD16a Protein, Human, Recombinant (176 Val, His & AVI Tag)) (human, UniProt P08637 17-208); experiment: SPR (Biacore 8K), His-tagged FcγRIIIa-V158 captured on an anti-His chip, antibody as analyte, endpoint response against concentration
T3 construct: Bought reagent; not shown: His & AVI tag
T3 sequence (P08637 17-208 F176V limits assumed): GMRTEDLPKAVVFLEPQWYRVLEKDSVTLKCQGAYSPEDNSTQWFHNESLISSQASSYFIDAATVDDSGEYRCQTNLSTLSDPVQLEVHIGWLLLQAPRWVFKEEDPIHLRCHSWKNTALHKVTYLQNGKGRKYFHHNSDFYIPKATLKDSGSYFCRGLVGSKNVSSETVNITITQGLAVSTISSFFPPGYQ
Description: as §1, §2

Measured: binding result

B1: IgG1-b12 (antibody)
heavy: not shown
light: EIVLTQSPGTLSLSPGERATFSCRSSHSIRSRRVAWYQHKPGQAPRLVIHGVSNRASGISDRFSGSGSGTDFTLTITRVEPEDFALYYCQVYGASSYTFGQGTKLERKRTVAAPSVFIFPPSDEQLKSGTASVVCLLNNFYPREAKVQWKVDNALQSGNSQESVTEQDSKDSTYSLSSTLTLSKADYEKHKVYACEVTHQGLSSPVTKSFNRGEC
notes: HIV gp120 antibody b12 with wild-type IgG1 Fc; also called IgG-b12
binds: all assays above
